Measurements from the Immune Epitope Database (IEDB).
Values belong to the sequence of their own block, whether it stands above or below them.

Legend:
HLA-A*02:01 [1] = experiment: IEDB peptide-MHC binding, purified MHC/competitive/fluorescence; filed as Kd, often an IC50 or EC50 that approximates it; ≥ and ≤ were set here for values at or beyond the usual limits of such assays; settings: source organism: Yersinia pestis Nepal516
HLA-B*15:01 [2] = experiment: as above
HLA-B*39:01 = experiment: as above; settings: source organism: Yersinia pestis Nepal516
HLA-B*07:02 [3] = experiment: IEDB peptide-MHC binding, purified MHC/competitive/radioactivity; filed as Kd, often an IC50 or EC50 that approximates it; ≥ and ≤ were set here for values at or beyond the usual limits of such assays
HLA-B*35:01 = experiment: as above
HLA-B*51:01 [4] = experiment: as above
HLA-B*53:01 = experiment: as above
HLA-B*54:01 = experiment: as above
HLA-A*01:01 [5] = experiment: as above; settings: source organism: Dengue virus 1 Brazil/97-11/1997
HLA-A*26:01 [6] = experiment: as above; settings: source organism: Dengue virus 1 Brazil/97-11/1997
HLA-A*30:01 = experiment: as above; settings: source organism: Dengue virus 1 Brazil/97-11/1997
HLA-A*30:02 = experiment: as above; settings: source organism: Dengue virus 1 Brazil/97-11/1997
HLA-B*15:01 [7] = experiment: as above; settings: source organism: Dengue virus 1 Brazil/97-11/1997
HLA-B*15:17 = experiment: IEDB peptide-MHC binding, purified MHC/direct/fluorescence; filed as Kd, often an IC50 or EC50 that approximates it; ≥ and ≤ were set here for values at or beyond the usual limits of such assays; settings: source organism: Mammarenavirus lassaense
HLA-B*57:01 = experiment: as above; settings: source organism: Mammarenavirus lassaense
HLA-B*58:01 = experiment: as above
HLA-B*51:01 [8] = experiment: IEDB peptide-MHC binding, purified MHC/competitive/fluorescence; filed as Kd, often an IC50 or EC50 that approximates it; ≥ and ≤ were set here for values at or beyond the usual limits of such assays; settings: source organism: Salmonella enterica subsp. enterica serovar Typhi
HLA-A*01:01 [9] = experiment: IEDB peptide-MHC binding, purified MHC/direct/fluorescence; filed as Kd, often an IC50 or EC50 that approximates it; ≥ and ≤ were set here for values at or beyond the usual limits of such assays
HLA-A*02:01 [10] = experiment: as above
HLA-A*03:01 = experiment: as above
HLA-A*11:01 = experiment: as above
HLA-A*24:03 = experiment: as above
HLA-A*26:01 [11] = experiment: as above
HLA-A*31:01 = experiment: as above
HLA-A*69:01 = experiment: as above
HLA-B*07:02 [12] = experiment: as above
HLA-B*08:01 = experiment: as above
HLA-B*15:01 [13] = experiment: as above
HLA-B*27:05 = experiment: as above
HLA-B*40:01 [14] = experiment: as above
HLA-B*44:02 [15] = experiment: as above
HLA-B*18:01 = experiment: IEDB peptide-MHC binding, purified MHC/competitive/radioactivity; filed as Kd, often an IC50 or EC50 that approximates it; ≥ and ≤ were set here for values at or beyond the usual limits of such assays
HLA-B*40:01 [16] = experiment: as above
HLA-B*40:02 = experiment: as above
HLA-B*44:02 [17] = experiment: as above
HLA-B*44:03 = experiment: as above
HLA-B*45:01 = experiment: as above
[18] = source organism: Mammarenavirus lassaense
[19] = source organism: Mammarenavirus juninense
[20] = source organism: Vaccinia virus WR
[21] = source organism: Triticum aestivum
[22] = source organism: Dengue virus 3 Martinique/1243/1999
[23] = source organism: Salmonella enterica subsp. enterica serovar Typhi
[24] = source organism: Salmonella enterica
[25] = source organism: SARS coronavirus Tor2
[26] = source organism: Vibrio vulnificus
[27] = source organism: Mammarenavirus machupoense
[28] = source organism: Corynebacterium glutamicum

Sequence: AQRELFFTL
Kd (HLA-A*02:01 [1]): 1300 nM | Kd (HLA-B*15:01 [2]; source organism: Yersinia pestis Nepal516): 113 nM | Kd (HLA-B*39:01): 332 nM

Sequence: FPAGLTYSQL
Kd (HLA-B*07:02 [3]; [18]): 155 nM | Kd (HLA-B*35:01; [18]): 115 nM | Kd (HLA-B*51:01 [4]; [18]): 8280 nM | Kd (HLA-B*53:01; [18]): 111 nM | Kd (HLA-B*54:01; [18]): 603 nM

Sequence: FPAIFSAEV
Kd (HLA-B*07:02 [3]; [18]): 65.3 nM | Kd (HLA-B*35:01; [18]): 16.8 nM | Kd (HLA-B*51:01 [4]; [18]): 85.6 nM | Kd (HLA-B*53:01; [18]): 40.4 nM | Kd (HLA-B*54:01; [18]): 6.94 nM

Sequence: FTMAHRKPTY
Kd (HLA-A*01:01 [5]): 9.16 µM | Kd (HLA-A*26:01 [6]): 476 nM | Kd (HLA-A*30:01): 2270 nM | Kd (HLA-A*30:02): 744 nM | Kd (HLA-B*15:01 [7]): 313 nM | Kd (HLA-B*35:01; source organism: Dengue virus 1 Brazil/97-11/1997): 698 nM

Sequence: HPDMDSLMI
Kd (HLA-B*07:02 [3]; [19]): 1720 nM | Kd (HLA-B*35:01; [19]): 2010 nM | Kd (HLA-B*51:01 [4]; [19]): 2900 nM | Kd (HLA-B*53:01; [19]): 79.6 nM | Kd (HLA-B*54:01; [19]): ≥ 23200 nM

Sequence: KPVSDLYTSM
Kd (HLA-B*07:02 [3]; [20]): 0.297 nM | Kd (HLA-B*35:01; [20]): 34.9 nM | Kd (HLA-B*51:01 [4]; [20]): ≥ 69600 nM | Kd (HLA-B*53:01; [20]): 56.6 nM | Kd (HLA-B*54:01; [20]): 10700 nM

Sequence: KSFLWTQSL
Kd (HLA-B*15:17): ≤ 1 nM | Kd (HLA-B*57:01): 29 nM | Kd (HLA-B*58:01; [18]): 0.042 µM

Kd (HLA-B*07:02 [3]; [21]): 685 nM | Kd (HLA-B*35:01; [21]): 1100 nM | Kd (HLA-B*51:01 [4]; [21]): 272 nM | Kd (HLA-B*53:01; [21]): 18.2 nM | Kd (HLA-B*54:01; [21]): 182 nM
Sequence: LPAMCNVYI

Sequence: LPESDLDKVY
Kd (HLA-B*07:02 [3]; [20]): ≥ 69600 nM | Kd (HLA-B*35:01; [20]): 79 nM | Kd (HLA-B*51:01 [4]; [20]): ≥ 54100 nM | Kd (HLA-B*53:01; [20]): 513 nM | Kd (HLA-B*54:01; [20]): 10600 nM

Kd (HLA-B*07:02 [3]; [21]): 109 nM | Kd (HLA-B*35:01; [21]): 10600 nM | Kd (HLA-B*51:01 [4]; [21]): 32.3 nM | Kd (HLA-B*53:01; [21]): 14900 nM | Kd (HLA-B*54:01; [21]): 1390 nM
Sequence: LPYPQPQL

Sequence: MPVTAASAAQ
Kd (HLA-B*35:01; [22]): 1590 nM | Kd (HLA-B*51:01 [4]; [22]): ≥ 20500 nM

Sequence: NPLWPFETV
Kd (HLA-B*51:01 [8]): 229 nM

Sequence: QTDDGVRFT
Kd (HLA-A*01:01 [9]; [23]): 19.8 µM | Kd (HLA-A*02:01 [10]; [24]): ≥ 20 µM | Kd (HLA-A*03:01; [24]): ≥ 20 µM | Kd (HLA-A*11:01; [24]): ≥ 20 µM | Kd (HLA-A*24:03; [24]): ≥ 20 µM | Kd (HLA-A*26:01 [11]; [24]): ≥ 20 µM | Kd (HLA-A*31:01; [24]): ≥ 20 µM | Kd (HLA-A*69:01; [23]): 0.0703 µM | Kd (HLA-B*07:02 [12]; [24]): ≥ 20 µM | Kd (HLA-B*08:01; [24]): ≥ 20 µM | Kd (HLA-B*15:01 [13]; [24]): ≥ 20 µM | Kd (HLA-B*27:05; [24]): ≥ 20 µM | Kd (HLA-B*40:01 [14]; [24]): ≥ 20 µM | Kd (HLA-B*44:02 [15]; [24]): ≥ 20 µM | Kd (HLA-B*58:01; [24]): ≥ 20 µM

Sequence: RIYHEFLSL
Kd (HLA-B*15:01 [2]; source organism: Yersinia pestis Angola): 97.5 nM

Sequence: SEETGTLIV
Kd (HLA-B*18:01; [25]): ≥ 50.5 µM | Kd (HLA-B*40:01 [16]; [25]): 1930 nM | Kd (HLA-B*40:02; [25]): 7260 nM | Kd (HLA-B*44:02 [17]; [25]): ≥ 50100 nM | Kd (HLA-B*44:03; [25]): ≥ 27600 nM | Kd (HLA-B*45:01; [25]): 121 nM

Sequence: SELVIGAVII
Kd (HLA-B*18:01; [25]): ≥ 47.2 µM | Kd (HLA-B*40:01 [16]; [25]): 684 nM | Kd (HLA-B*40:02; [25]): 1180 nM | Kd (HLA-B*44:02 [17]; [25]): 1690 nM | Kd (HLA-B*44:03; [25]): 827 nM | Kd (HLA-B*45:01; [25]): 1900 nM

Sequence: STDTRHIPQ
Kd (HLA-A*01:01 [9]; [26]): 4.41 µM | Kd (HLA-A*02:01 [10]; [26]): ≥ 20 µM | Kd (HLA-A*03:01; [26]): ≥ 20 µM | Kd (HLA-A*11:01; [26]): ≥ 20 µM | Kd (HLA-A*24:03; [26]): ≥ 20 µM | Kd (HLA-A*26:01 [11]; [26]): ≥ 20 µM | Kd (HLA-A*31:01; [26]): ≥ 20 µM | Kd (HLA-A*69:01; [26]): ≥ 20 µM | Kd (HLA-B*07:02 [12]; [26]): ≥ 20 µM | Kd (HLA-B*08:01; [26]): ≥ 20 µM | Kd (HLA-B*15:01 [13]; [26]): ≥ 20 µM | Kd (HLA-B*27:05; [26]): ≥ 20 µM | Kd (HLA-B*40:01 [14]; [26]): ≥ 20 µM | Kd (HLA-B*44:02 [15]; [26]): ≥ 20 µM | Kd (HLA-B*58:01; [26]): ≥ 20 µM

Sequence: TEKSNVVRG
Kd (HLA-B*18:01; [25]): ≥ 77.5 µM | Kd (HLA-B*40:01 [16]; [25]): ≥ 42700 nM | Kd (HLA-B*40:02; [25]): ≥ 50300 nM | Kd (HLA-B*44:02 [17]; [25]): 11900 nM | Kd (HLA-B*44:03; [25]): ≥ 78200 nM | Kd (HLA-B*45:01; [25]): ≥ 31800 nM

Sequence: TEQFLCYAL
Kd (HLA-B*18:01; [27]): 0.021 µM | Kd (HLA-B*40:01 [16]; [27]): 10600 nM | Kd (HLA-B*40:02; [27]): 8.88 nM | Kd (HLA-B*44:02 [17]; [27]): 143 nM | Kd (HLA-B*44:03; [27]): 1500 nM | Kd (HLA-B*45:01; [27]): 26.6 nM

Sequence: TVQKDGMYF
Kd (HLA-A*24:03; source organism: Giardia lamblia ATCC 50803): 0.46 µM

Kd (HLA-A*01:01 [9]; [28]): ≥ 20 µM | Kd (HLA-A*02:01 [10]; [28]): 0.0637 µM | Kd (HLA-A*03:01; [28]): ≥ 20 µM | Kd (HLA-A*11:01; [28]): ≥ 20 µM | Kd (HLA-A*24:03; [28]): ≥ 20 µM | Kd (HLA-A*26:01 [11]; [28]): ≥ 20 µM | Kd (HLA-A*31:01; [28]): ≥ 20 µM | Kd (HLA-A*69:01; [28]): ≥ 20 µM | Kd (HLA-B*07:02 [12]; [28]): 10.3 µM | Kd (HLA-B*08:01; [28]): ≥ 20 µM | Kd (HLA-B*15:01 [13]; [28]): 3.81 µM | Kd (HLA-B*27:05; [28]): ≥ 20 µM | Kd (HLA-B*40:01 [14]; [28]): ≥ 20 µM | Kd (HLA-B*58:01; [28]): ≥ 20 µM
Sequence: VLPVPGASV

Sequence: YECLYRNRDV
Kd (HLA-B*18:01; [25]): ≥ 70.5 µM | Kd (HLA-B*40:01 [16]; [25]): 2410 nM | Kd (HLA-B*40:02; [25]): 1720 nM | Kd (HLA-B*44:02 [17]; [25]): 5550 nM | Kd (HLA-B*44:03; [25]): 10300 nM | Kd (HLA-B*45:01; [25]): 2510 nM

Sequence: YEQYIKWPWY
Kd (HLA-B*18:01; [25]): 0.0793 µM | Kd (HLA-B*40:01 [16]; [25]): 1220 nM | Kd (HLA-B*40:02; [25]): 7600 nM | Kd (HLA-B*44:02 [17]; [25]): 41.6 nM | Kd (HLA-B*44:03; [25]): 119 nM | Kd (HLA-B*45:01; [25]): 518 nM
